Data taken from paper PMC6467919, “Designed Mutations Alter the Binding Pathways of an Intrinsically Disordered Protein” (Scientific Reports, 2019).

B1: Truncated WASP GBD (residues 238-298) with the BR segment deleted (domain or fragment, human)
chain: GSIGAPSGFKHVSHVGWDPQNGFDVNNLDPDLRSLFSRAGISEAQLTDAETSKLIYDFIEDQG
notes: two extra residues (Gly-Ser) from the thrombin recognition site left at the N-terminus of GBD; also called GBDΔBR; source: E. coli Rosetta, purified (GSTrap, thrombin, 70 °C heat step, Superdex 75); not shown: GST, N-terminal, cleaved
B2: GTPase-binding domain (GBD) of the Wiskott-Aldrich Syndrome protein (WASP), wild type, residues 228-298 (domain or fragment, human)
chain: GSSGKKKISKADIGAPSGFKHVSHVGWDPQNGFDVNNLDPDLRSLFSRAGISEAQLTDAETSKLIYDFIEDQG
notes: two extra residues (Gly-Ser) from the thrombin recognition site left at the N-terminus of GBD; 15N labelled for the NMR experiment; also called GBDWT; wild-type GBD; source: E. coli Rosetta, purified (GSTrap, thrombin, 70 °C heat step, Superdex 75); not shown: GST, N-terminal, cleaved
B3: WASP GBD (residues 228-298) with Lys230Lys231Lys232 changed to Glu (domain or fragment, human)
chain: GSSGEEEISKADIGAPSGFKHVSHVGWDPQNGFDVNNLDPDLRSLFSRAGISEAQLTDAETSKLIYDFIEDQG
notes: two extra residues (Gly-Ser) from the thrombin recognition site left at the N-terminus of GBD; also called GBD3E; source: E. coli Rosetta, purified (GSTrap, thrombin, 70 °C heat step, Superdex 75); not shown: GST, N-terminal, cleaved
B4: WASP GBD (residues 228-298) with the 3A mutations plus Arg273 to Glu and Gly275 to Asp (domain or fragment, human)
chain: GSSGAAAISKADIGAPSGFKHVSHVGWDPQNGFDVNNLDPDLRSLFSEADISEAQLTDAETSKLIYDFIEDQG
notes: two extra residues (Gly-Ser) from the thrombin recognition site left at the N-terminus of GBD; also called GBD_(3A/ED); source: E. coli Rosetta, purified (GSTrap, thrombin, 70 °C heat step, Superdex 75); not shown: GST, N-terminal, cleaved
B5: WASP GBD (residues 228-298) with Lys230Lys231Lys232 substituted by Ala (domain or fragment, human)
chain: GSSGAAAISKADIGAPSGFKHVSHVGWDPQNGFDVNNLDPDLRSLFSRAGISEAQLTDAETSKLIYDFIEDQG
notes: two extra residues (Gly-Ser) from the thrombin recognition site left at the N-terminus of GBD; 15N labelled for the NMR experiment; also called GBD3A; source: E. coli Rosetta, purified (GSTrap, thrombin, 70 °C heat step, Superdex 75); not shown: GST, N-terminal, cleaved

Assays:
Conditions in all cases: both partners purified
[1] = biological target: T1, Human Cdc42 GTPase, wild type, residues 1-179 (human, UniProt P60953 1-179); assay: stopped-flow fluorescence; ka from kobs against [GBD]; 0.1 μM mantGppNHp·Cdc42 in one syringe, GBD in excess in the second; 50 mM sodium phosphate pH 7.0, 5 mM MgCl2, 1 mM TECP, 25 °C
T1 construct: four extra residues (Gly-Ser-Phe-Thr) from the expression vector left at the N-terminus of Cdc42; human Cdc42, residues 1-179; also called Cdc42WT; wild-type Cdc42; source: E. coli Rosetta, purified (HisTrap, TEV cleavage, second HisTrap, Superdex 75); not shown: His6, N-terminal, cleaved

[2] = biological target: T2, Human Cdc42 (residues 1-179) with Glu31, Asn39, Glu62, Asp63, Asp65 and Gln74 all substituted by Lys (human, UniProt P60953 1-179, Glu31 substituted by Lys | Asn39 substituted by Lys | Glu62 substituted by Lys …); assay: as above
T2 construct: four extra residues (Gly-Ser-Phe-Thr) from the expression vector left at the N-terminus of Cdc42; human Cdc42, residues 1-179, with the 6K mutations around the subsite for GBD Csub; Loaded with mantGppNHp or GppNHp; also called Cdc42_(6K); source: E. coli Rosetta, purified (HisTrap, TEV cleavage, second HisTrap, Superdex 75); not shown: His6, N-terminal, cleaved

[3] = biological target: T1, Human Cdc42 GTPase, wild type, residues …; assay: other fluorescence titration; Kd from the fluorescence difference before mixing and at equilibrium at seven [GBD] values on the stopped-flow instrument; 0.1 μM mantGppNHp·Cdc42; 50 mM sodium phosphate pH 7.0, 5 mM MgCl2, 1 mM TECP, 25 °C; kd deduced as the product of Kd and ka
[4] = biological target: T2, Human Cdc42 (residues 1-179) with …; assay: as above
[5] = biological target: T1, Human Cdc42 GTPase, wild type, residues …; assay: stopped-flow fluorescence; ka from kobs against [GBD] as in buffer, with 1 M urea added
[6] = biological target: T1, Human Cdc42 GTPase, wild type, residues …; assay: stopped-flow fluorescence; kd measured directly by displacement: 0.1 μM mantGppNHp·Cdc42 and 1 μM GBD mixed with 20 μM GppNHp·Cdc42; 50 mM sodium phosphate pH 7.0, 5 mM MgCl2, 1 mM TECP, 25 °C
[7] = biological target: T2, Human Cdc42 (residues 1-179) with …; assay: stopped-flow fluorescence; ka from kobs against [GBD] as in buffer, with 1 M urea added
[8] = biological target: T2, Human Cdc42 (residues 1-179) with …; assay: stopped-flow fluorescence; ka from kobs against [GBD] as in buffer, with 2 M urea added

T2 sequence (P60953 other isoform, or with tags, fused parts or gaps with the stated changes): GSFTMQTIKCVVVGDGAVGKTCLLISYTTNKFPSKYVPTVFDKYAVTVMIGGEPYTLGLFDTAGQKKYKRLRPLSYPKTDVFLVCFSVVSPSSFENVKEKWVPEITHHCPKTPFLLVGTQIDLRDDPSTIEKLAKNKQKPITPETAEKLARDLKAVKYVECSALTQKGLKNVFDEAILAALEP
T1 sequence (P60953 other isoform, or with tags, fused parts or gaps): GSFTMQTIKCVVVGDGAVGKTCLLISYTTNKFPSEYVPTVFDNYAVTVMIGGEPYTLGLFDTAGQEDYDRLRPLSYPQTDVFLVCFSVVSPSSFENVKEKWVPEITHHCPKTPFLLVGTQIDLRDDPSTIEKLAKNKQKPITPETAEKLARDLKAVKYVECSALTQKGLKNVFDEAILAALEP

Binder	kon [1] [M⁻¹ s⁻¹]	kon [2] [M⁻¹ s⁻¹]	fold increase in kd relative to GBDWT [3] [fold]	fold weakening in binding affinity relative to GBDWT [3] [fold]	fold decrease in kd relative to Cdc42WT [4] [fold]	fold increase in binding affinity relative to Cdc42WT [4] [fold]	fold decrease of ka at 1 M urea relative to no urea [5] [fold]	also measured
B1	40000	4.03e+06	10	1420	16	~1500	–	–
B2	5.53e+06	2.14e+07	–	–	–	–	1.6	koff [6]: 0.696 ± 0.011 s⁻¹; Kd [3]: 114 ± 9 nM; koff [3]: 0.63 s⁻¹
B3	97000	–	7	–	–	–	–	–
B4	–	–	–	–	–	–	–	fold reduction of ka relative to GBD3A [1]: 2.5 fold; fold increase of Kd relative to GBD3A [3]: 3.7 fold
B5	920000	1.09e+07	2	13	121	~1500	3.1	fold decrease of ka at 1 M urea relative to no urea [7]: 3.5 fold; fold decrease of ka at 2 M urea relative to no urea [8]: 9.2 fold; fold higher affinity than GBDWT-Cdc42WT [4]: ~100 fold
